Laboratory results: publication PMC5693252
Where two headings read alike, the source gives them in different places.

Legend:
Experiment in all cases: native MS
AKAP79(297-427) = AKAP79(297-427) (UniProt P24588)
[1] = target: protein kinase A regulatory type II (RII) subunit (UniProt P12367)
[2] = target: protein kinase A regulatory type II (RII) subunit (UniProt P12367); remark: listed apart in the source

UniProt P24588, sequence (P24588 297-427): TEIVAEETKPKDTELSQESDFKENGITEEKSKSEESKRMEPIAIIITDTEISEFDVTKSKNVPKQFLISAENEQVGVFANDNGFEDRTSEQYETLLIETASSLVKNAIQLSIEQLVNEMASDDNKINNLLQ

protein kinase A regulatory type II (RII) subunit (from UniProt P12367 1-401) (natural protein)
2: stoichiometry N (RII chains per AKAP79(297-427)) (AKAP79(297-427)) | stoichiometry N (RII chains in the oligomer) [1] | stoichiometry N (RII chains in the oligomer) [2]
